What was measured:
[1] = molecular target: the molecule itself; assay: native gel or EMSA
[2] = molecular target: the molecule itself; assay: non-reducing SDS-PAGE
[3] = molecular target: the molecule itself; assay: reducing SDS-PAGE and immunoblot of parasite lysate
[4] = molecular target: the molecule itself; assay: SDS-PAGE after LAFS treatment

B1: recombinant Plasmodium falciparum 3D7 60S stalk ribosomal protein P2, 6x His-tag (natural protein, UniProt O00806 1-112, looked up)
chain: MAMKYVAAYLMCVLGGNENPSTKEVKNVLGAVNADVEDEVLNNFIDSLKGKSCHELITDGLKKLQNIGGGVAAAPAGAAAVETAEAKKEDKKEEKKEEEEEEEDDLGFSLFG
For B1, the “stoichiometry N” value [1] was 4 and the “stoichiometry N” value [2] was 2.

B2: Plasmodium falciparum P2 protein, endogenous in wild type 3D7 parasites (natural protein, UniProt O00806 1-112, looked up)
chain: B1 chain
B2 was tested, and the “stoichiometry N” value [3] was 4.

B3: rec.PfP2 pre-reduced and alkylated with iodoacetamide (natural protein, Plasmodium falciparum 3D7, UniProt O00806 1-112, looked up)
chain: B1 chain
modifications: all cysteine residues pre-reduced and alkylated with Iodoacetamide (IAA)
B3 was tested, and the “stoichiometry N” value [4] was 4.

B4: PfP2-HA of transgenic P. falciparum 3D7 parasites (natural protein, Plasmodium falciparum 3D7, UniProt O00806 1-112, looked up)
chain: B1 chain
For B4, the “stoichiometry N” value [3] was 4.
